The numbers were not newly measured in PMC9265785, which cites them from elsewhere.

For this series, the target named is Pex5 (Saccharomyces cerevisiae) (UniProt P35056).
Sequence of UniProt P35056 (P35056 whole entry): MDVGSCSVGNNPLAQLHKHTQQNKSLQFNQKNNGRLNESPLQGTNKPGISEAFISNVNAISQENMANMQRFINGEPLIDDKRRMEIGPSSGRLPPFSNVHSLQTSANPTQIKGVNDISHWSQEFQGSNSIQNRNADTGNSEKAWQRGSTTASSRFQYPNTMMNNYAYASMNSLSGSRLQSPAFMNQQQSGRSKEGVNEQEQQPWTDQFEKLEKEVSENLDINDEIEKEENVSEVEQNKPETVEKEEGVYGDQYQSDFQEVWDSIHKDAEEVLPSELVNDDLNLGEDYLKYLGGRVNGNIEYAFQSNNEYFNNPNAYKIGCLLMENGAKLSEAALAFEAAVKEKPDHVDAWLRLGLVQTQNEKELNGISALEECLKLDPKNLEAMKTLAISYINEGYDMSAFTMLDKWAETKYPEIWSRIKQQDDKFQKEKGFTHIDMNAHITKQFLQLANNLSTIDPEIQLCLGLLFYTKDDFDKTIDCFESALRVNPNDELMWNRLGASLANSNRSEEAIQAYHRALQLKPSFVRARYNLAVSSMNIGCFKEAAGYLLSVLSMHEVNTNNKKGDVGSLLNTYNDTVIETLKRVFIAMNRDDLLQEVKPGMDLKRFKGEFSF

By Kd is commonly meant the equilibrium constant for the complex coming apart. Turning to Pex1 (from UniProt P24004), the Kd was 1000 nM.
